Results as given in PMC9636508, “Reciprocal interactions among Cobll1, PACSIN2, and SH3BP1 regulate drug resistance in chronic myeloid leukemia” (Cancer Medicine, 2022).

Assays:
[1] = target: T1, Cobll1-NT-f (N-terminal region of Cobll1, residues 1-410) (UniProt Q53SF7 1-410); experiment: SPR; PACSIN2 SH3 domain immobilised on a PEG chip by amine coupling (Reichert SR7500DC); 25°C; PBS (10 mM KH2PO4, 137 mM NaCl, 2.7 mM KCl, pH 7.4); 3 min association, 10 min dissociation; details: both partners purified
T1 construct: Cobll1 N-terminal region, residues 1-410, cloned into pGEX-4T-1; source: E. coli BL21-CodonPlus (DE3), purified (GST column, tag cleavage, ion exchange, Superdex)
T1 sequence (Q53SF7 1-410): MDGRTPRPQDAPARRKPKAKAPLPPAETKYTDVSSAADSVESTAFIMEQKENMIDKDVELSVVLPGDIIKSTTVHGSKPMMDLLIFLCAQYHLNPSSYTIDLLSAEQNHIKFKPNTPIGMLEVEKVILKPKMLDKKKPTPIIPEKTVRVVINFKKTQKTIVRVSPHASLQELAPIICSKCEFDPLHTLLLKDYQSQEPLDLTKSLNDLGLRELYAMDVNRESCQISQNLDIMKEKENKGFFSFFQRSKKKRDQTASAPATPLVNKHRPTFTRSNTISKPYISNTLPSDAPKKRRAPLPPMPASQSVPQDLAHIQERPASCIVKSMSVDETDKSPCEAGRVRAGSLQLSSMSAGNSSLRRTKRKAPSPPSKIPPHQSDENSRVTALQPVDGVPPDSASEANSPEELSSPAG

[2] = target: T2, SH3BP1-CT (C-terminal region of SH3BP1, residues 541-701) (UniProt Q9Y3L3 541-701); experiment: as above; details: both partners purified
T2 construct: SH3BP1 C-terminal region containing all proline-rich motifs, residues 541-701, cloned into pET-21a; also called SH3PB1-CT; source: E. coli BL21-CodonPlus (DE3), purified (Ni column, Superdex 75)
T2 sequence (looked up): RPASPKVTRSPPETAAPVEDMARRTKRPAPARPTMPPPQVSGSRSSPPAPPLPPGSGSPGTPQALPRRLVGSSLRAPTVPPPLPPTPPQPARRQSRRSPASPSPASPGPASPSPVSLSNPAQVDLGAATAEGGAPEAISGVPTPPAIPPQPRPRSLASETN

Kd [1]: 0.0258 µM
Kd [2]: 2.2 µM
B1: PACSIN2 SH3 domain (residues 430-486), purified (domain or fragment)
chain: not shown
notes: 15N- or 15N,13C-labelled for NMR, unlabelled for SPR; source: E. coli BL21-CodonPlus (DE3), purified (GST column, tag cleavage, ion exchange, Superdex)
